In publication PMC10786891, “Massively parallel profiling of RNA-targeting CRISPR-Cas13d”:
Residue numbers refer to the chain shown, from its start. In names and notes the source's numbering stands.

T1: EsCas13d, nuclease-dead (Eubacterium siraeum, UniProt B0MS50, R295A;H300A;R849A;H854A)
T1 sequence: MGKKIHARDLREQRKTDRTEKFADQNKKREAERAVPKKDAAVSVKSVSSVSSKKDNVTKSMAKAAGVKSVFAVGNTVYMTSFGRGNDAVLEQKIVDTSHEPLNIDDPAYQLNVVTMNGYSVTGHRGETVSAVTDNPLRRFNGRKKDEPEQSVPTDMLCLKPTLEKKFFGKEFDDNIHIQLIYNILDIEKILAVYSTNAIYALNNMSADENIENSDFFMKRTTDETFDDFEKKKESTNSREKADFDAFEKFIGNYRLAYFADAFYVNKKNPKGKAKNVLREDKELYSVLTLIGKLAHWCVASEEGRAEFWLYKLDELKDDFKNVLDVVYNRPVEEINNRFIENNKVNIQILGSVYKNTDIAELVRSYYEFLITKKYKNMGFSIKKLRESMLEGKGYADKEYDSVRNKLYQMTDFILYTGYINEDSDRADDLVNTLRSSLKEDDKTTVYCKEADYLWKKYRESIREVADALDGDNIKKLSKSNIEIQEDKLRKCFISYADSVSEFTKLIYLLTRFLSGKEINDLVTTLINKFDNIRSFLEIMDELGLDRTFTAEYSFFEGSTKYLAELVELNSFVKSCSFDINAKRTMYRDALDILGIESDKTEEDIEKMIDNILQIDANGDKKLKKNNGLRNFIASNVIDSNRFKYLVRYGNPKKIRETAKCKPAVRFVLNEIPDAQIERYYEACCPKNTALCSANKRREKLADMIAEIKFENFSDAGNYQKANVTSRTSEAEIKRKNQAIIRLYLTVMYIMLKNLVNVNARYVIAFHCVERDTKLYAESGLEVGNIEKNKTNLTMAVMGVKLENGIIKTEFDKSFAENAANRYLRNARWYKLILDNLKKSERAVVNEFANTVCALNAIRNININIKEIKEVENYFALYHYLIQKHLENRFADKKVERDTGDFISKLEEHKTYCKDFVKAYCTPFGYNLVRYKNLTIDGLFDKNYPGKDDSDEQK

B1: target 1 insC 3' of 15,insC 3' of 9 (mixed)
RNA 1: CACCCGUGCAAAAAUGCAGGGGUCUAAAACUGAGCGGAUAACCUCUCUAUGG
RNA 2: GGGAAUGGAUCCACAUCUACGAAUUCGUACCAUAGAGCAGGUUACUCCGCUCACCGAGAUCGGAAGAGCACACGU
B2: target 1 C7U,A16U (mixed)
RNA 1: B1 RNA 1
RNA 2: GGGAAUGGAUCCACAUCUACGAAUUCGUACCAUAGUGAGGUUAUUCGCUCACCGAGAUCGGAAGAGCACACGU
B3: target 1 insG 3' of 11,insU 3' of 1 (mixed)
RNA 1: B1 RNA 1
RNA 2: GGGAAUGGAUCCACAUCUACGAAUUCGUACCAUAGAGAGGUGUAUCCGCUCAUCCGAGAUCGGAAGAGCACACGU
B4: target 1 insG 3' of 14,insU 3' of 1 (mixed)
RNA 1: B1 RNA 1
RNA 2: B3 RNA 2 with U41G, G42U
B5: target 1 insC 3' of 11,insU 3' of 6 (mixed)
RNA 1: B1 RNA 1
RNA 2: B3 RNA 2 with G42C, G48U, C49G, U50C, C51U, A52C, U53A
B6: target 1 C4G,C6A (mixed)
RNA 1: B1 RNA 1
RNA 2: B2 RNA 2 with U36A, U45C, C46A, C48G
B7: target 1 insA 3' of 19,insU 3' of 15 (mixed)
RNA 1: B1 RNA 1
RNA 2: B1 RNA 2 with G35A, A36G, G37A, C38G, A39U, G40A, U42G, A44U, C45A
B8: target 1 A18U,A20G (mixed)
RNA 1: B1 RNA 1
RNA 2: B2 RNA 2 with A32G, A34U, U36A, U45C
B9: target 1 insG 3' of 11,insC 3' of 11 (mixed)
RNA 1: B1 RNA 1
RNA 2: B1 RNA 2 with C38A, A39G, G41U, U42G, U43C, A44U, C45A
B10: target 1 insC 3' of 15,insU 3' of 4 (mixed)
RNA 1: B1 RNA 1
RNA 2: B1 RNA 2 with C45U, U46C, C48G, G49C, C50U
B11: target 1 C2U,A16U (mixed)
RNA 1: B1 RNA 1
RNA 2: B2 RNA 2 with U45C, C50U
B12: target 1 G17A,C21U (mixed)
RNA 1: B1 RNA 1
RNA 2: B2 RNA 2 with C31U, G35A, U36A, U45C
B13: target 1 insG 3' of 21,insU 3' of 12 (mixed)
RNA 1: B1 RNA 1
RNA 2: B1 RNA 2 with A32G, U33A, A34U, G35A, A36G, G37A, C38G, A44U, C45A
B14: target 1 C7A,G12U (mixed)
RNA 1: B1 RNA 1
RNA 2: B2 RNA 2 with U36A, G40U, U45A
B15: target 1 insU 3' of 17,insA 3' of 2 (mixed)
RNA 1: B1 RNA 1
RNA 2: B3 RNA 2 with A36U, G37A, A38G, G39A, U41G, G42U, U53A
B16: target 1 insA 3' of 19,insG 3' of 10 (mixed)
RNA 1: B1 RNA 1
RNA 2: B1 RNA 2 with G35A, A36G, G37A, C38G, A44G, C45A
B17: target 1 del11,del16 (mixed)
RNA 1: B1 RNA 1
RNA 2: GGGAAUGGAUCCACAUCUACGAAUUCGUACCAUAGGAGGUAUCCGCUCACCGAGAUCGGAAGAGCACACGU
B18: target 1 insC 3' of 19,insG 3' of 19 (mixed)
RNA 1: B1 RNA 1
RNA 2: B1 RNA 2 with A34C, C38A, A39G, G40A, U42G, A44U, C45A
B19: target 1 insC 3' of 22,insC 3' of 22 (mixed)
RNA 1: B1 RNA 1
RNA 2: B1 RNA 2 with A32C, U33C, G35U, C38A, A39G, G40A, U42G, A44U, C45A
B20: target 1 U8G,C22G (mixed)
RNA 1: B1 RNA 1
RNA 2: B2 RNA 2 with C30G, U36A, U44G, U45C
B21: target 1 insC 3' of 15,insA 3' of 3 (mixed)
RNA 1: B1 RNA 1
RNA 2: B1 RNA 2 with C45U, U46C, C48G, G49C, C50U, U51A
B22: target 1 insA 3' of 21,insC 3' of 12 (mixed)
RNA 1: B1 RNA 1
RNA 2: B1 RNA 2 with U33A, A34U, G35A, A36G, G37A, C38G, U42C, A44U, C45A
B23: target 1 U3A,U19C (mixed)
RNA 1: B1 RNA 1
RNA 2: B2 RNA 2 with U33C, U36A, U45C, U49A
B24: target 1 insU 3' of 17,insC 3' of 1 (mixed)
RNA 1: B1 RNA 1
RNA 2: B3 RNA 2 with A36U, G37A, A38G, G39A, U41G, G42U, U53C
B25: target 1 insA 3' of 17,insA 3' of 17 (mixed)
RNA 1: B1 RNA 1
RNA 2: B1 RNA 2 with G37A, C38A, A39G, G40A, U42G, A44U, C45A
B26: target 1 insA 3' of 15,insC 3' of 13 (mixed)
RNA 1: B1 RNA 1
RNA 2: B1 RNA 2 with C38A, G41C, U42G, A44U, C45A
B27: target 1 insG 3' of 9,insA 3' of 7 (mixed)
RNA 1: B1 RNA 1
RNA 2: B1 RNA 2 with C38A, A39G, G41U, U43A, A44G, C45U, U46C, C47A
B28: target 1 del1,del2 (mixed)
RNA 1: B1 RNA 1
RNA 2: GGGAAUGGAUCCACAUCUACGAAUUCGUACCAUAGAGAGGUUAUCCGCUCCGAGAUCGGAAGAGCACACGU
B29: target 1 insU 3' of 22,insU 3' of 6 (mixed)
RNA 1: B1 RNA 1
RNA 2: GGGAAUGGAUCCACAUCUACGAAUUCGUACUCAUAGAGAGGUUAUCCUGCUCACCGAGAUCGGAAGAGCACACGU
B30: target 1 insA 3' of 21,insU 3' of 5 (mixed)
RNA 1: B1 RNA 1
RNA 2: B29 RNA 2 with U31C, C32A, U48G, G49U
B31: target 1 insC 3' of 15,insU 3' of 2 (mixed)
RNA 1: B1 RNA 1
RNA 2: B3 RNA 2 with A38C, G39A, U41G, G42U, A52U, U53A
B32: target 1 U8G,G13U (mixed)
RNA 1: B1 RNA 1
RNA 2: B2 RNA 2 with U36A, G39U, U44G, U45C
B33: target 1 del4,del9 (mixed)
RNA 1: B1 RNA 1
RNA 2: B28 RNA 2 with A43U, U44C, C46G, G47U, U49A
B34: target 1 G13U,A16G (mixed)
RNA 1: B1 RNA 1
RNA 2: B2 RNA 2 with U36G, G39U, U45C

What follows are binders tested against T1, EsCas13d, nuclease-dead (assay: crRNA (strand 1, pre-loaded); Mg2+; 40 mM Tris-HCl pH 7.5, 150 mM NaCl, 6 mM MgCl2, 1 mM DTT, 0.1% Tween-20, 0.2 mg/ml BSA; 25 C; 10 min per concentration, then washed). Conditions: tags: His6-TwinStrep-SUMO cleaved; N-terminal SNAP kept (SNAP-Surface 488); label: 3' end held by stalled T7 RNA polymerase.

| Binder | Kd [nM] |
| --- | --- |
| B1 | 20 ± 1.7 |
| B2 | 46 ± 7 |
| B3 | 56 ± 10 |
| B4 | 12.3 ± 1.2 |
| B5 | 69 ± 8 |
| B6 | 6.7 ± 0.4 |
| B7 | 23.2 ± 2.6 |
| B8 | 93 ± 30 |
| B9 | 18 ± 1.7 |
| B10 | 14.3 ± 0.6 |
| B11 | 56 ± 11 |
| B12 | 8.1 ± 0.5 |
| B13 | 64 ± 13 |
| B14 | 15.3 ± 1.5 |
| B15 | 17.6 ± 1.8 |
| B16 | 68 ± 28 |
| B17 | 68 ± 11 |

| Binder | Kd [nM] |
| --- | --- |
| B18 | 73 ± 6 |
| B19 | 17.4 ± 0.7 |
| B20 | 43 ± 11 |
| B21 | 13 ± 0.8 |
| B22 | ~44 |
| B23 | 24.2 ± 2.6 |
| B24 | 18 ± 2.4 |
| B25 | 10.8 ± 0.6 |
| B26 | 16.4 ± 2.3 |
| B27 | 12.2 ± 0.6 |
| B28 | 15.6 ± 0.9 |
| B29 | 38 ± 7 |
| B30 | 30 ± 5 |
| B31 | 20.5 ± 1.8 |
| B32 | 38 ± 8 |
| B33 | 78 ± 15 |
| B34 | 100 ± 50 |
